According to paper PMC3553973:

Biological target: T1, SacUVDE (UV damage endonuclease) (Sulfolobus acidocaldarius, UniProt Q4J9T1 1-289)
T1 sequence: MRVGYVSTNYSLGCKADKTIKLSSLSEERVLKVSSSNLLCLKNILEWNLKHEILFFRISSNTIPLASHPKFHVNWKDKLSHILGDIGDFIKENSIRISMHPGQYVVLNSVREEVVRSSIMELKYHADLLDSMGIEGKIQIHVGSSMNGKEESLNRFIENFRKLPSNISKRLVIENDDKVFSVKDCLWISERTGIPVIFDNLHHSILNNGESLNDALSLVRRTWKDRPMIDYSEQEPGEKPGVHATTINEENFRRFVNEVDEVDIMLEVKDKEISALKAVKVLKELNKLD
Experiment: X-ray crystallography

B1: 15-mer duplex with 6-4 photoproduct (dsDNA)
DNA 1: GCGTCCTTGACGACG
DNA 2: CGTCGTCAAGGACGC
modifications: 6-4 photoproduct at T7-T8 of strand 1
B1: binds.
